The results in this text go back to FireProtDB (doi:10.1002/prot.20496).

First the molecules themselves.
B1: Alpha-lactalbumin, P00712 (parent)
chain: MMSFVSLLLVGILFHATQAEQLTKCEVFQKLKDLKDYGGVSLPEWVCTAFHTSGYDTQAIVQNNDSTEYGLFQINNKIWCKDDQNPHSRNICNISCDKFLDDDLTDDIVCAKKILDKVGINYWLAHKALCSEKLDQWLCEKL

“And” between values parts separate entries of the source, which are not always exact repeats. Equal values may be shown once.

Variants of B1 are the subject of the series. The conditions noted are these: Capra hircus, pH 7.5, Thermal, Tris-HCl 10 mM, CaCl2 2 mM, structure 1HFY, whole UniProt chain shown.

In the case of MMSFVSLLLVGILFHATQAEQLTKCEVFQKLKDLKDYGGVSLPEWVCTAFHTSGYDTQAIVQNNDSTEYGLFQINNKIFCKDDQNPHSRNICNISCDKFLDDDLTDDIVCAKKILDKVGINYWLAHKALCSEKLDQFLCEKL, under “DSC”, the Tm worked out at 68.1 °C and the “change of melting temperature, mutant - wild type (higher = more stable)” value (from here on “change of melting temperature, mutant”) is -3 °C. In addition, under “Fluorescence”, the Tm was 71 °C and 68 °C; the “change of melting temperature, mutant” value is -0.2 °C and -1.9 °C.

With MMSFVSLLLVGILFHATQAEQLTKCEVFQKLKDLKDYGGVSLPEWVCTAFHTSGYDTQAIVQNNDSTEYGLFQINNKIWCKDDQNPHSRNICNISCDKFLDDDLTDDIVCAKKILDKVGINYWLAHKALCSEKLDQFLCEKL, where the note is “DSC”, the Tm was 71.5 °C and the “change of melting temperature, mutant” value was determined as 0.4 °C.

With MMSFVSLLLVGILFHATQAEQLTKCEVFQKLKDLKDYGGVSLPEWVCTAFHTSGYDTQAIVQNNDSTEYGLFQINNKIFCKDDQNPHSRNICNISCDKFLDDDLTDDIVCAKKILDKVGINYWLAHKALCSEKLDQWLCEKL, the melting temperature (Tm) is 67.9 °C (DSC) and 69.2 °C (Fluorescence). The “change of melting temperature, mutant” value by setting is: (DSC) -3.2 °C; (Fluorescence) -2 °C.

One may read the Tm as the temperature at the midpoint of the melting transition.
